# Measured values as given in PMC4649164.
# Biological target: HIV gp120 (HIV-1)
# Experiment: SPR
substance,measurement,value
Griffithsin (from UniProt P84801 1-121) (natural protein),Kd,798 pM
same,koff,0.00175 s⁻¹
same,kon,2.19e+06 M⁻¹ s⁻¹
